Laboratory results reported in patent publication US20090111745A1.
Like-named read-outs stand apart in the source and are kept apart here. Values belong to the substance of their own block, whether it stands above or below them.

Tests used:
[1] = biological target: human serum albumin (human) (UniProt P02768); assay: sandwich ELISA, HSA coated at 10 µg/ml, control at 1 µM, detection with anti-FITC antibody
[2] = biological target: interleukin-1 type 1 receptor (human) (UniProt P14778); assay: cell-based or functional assay
Chain of interleukin-1 type 1 receptor (human) (P14778 18-569): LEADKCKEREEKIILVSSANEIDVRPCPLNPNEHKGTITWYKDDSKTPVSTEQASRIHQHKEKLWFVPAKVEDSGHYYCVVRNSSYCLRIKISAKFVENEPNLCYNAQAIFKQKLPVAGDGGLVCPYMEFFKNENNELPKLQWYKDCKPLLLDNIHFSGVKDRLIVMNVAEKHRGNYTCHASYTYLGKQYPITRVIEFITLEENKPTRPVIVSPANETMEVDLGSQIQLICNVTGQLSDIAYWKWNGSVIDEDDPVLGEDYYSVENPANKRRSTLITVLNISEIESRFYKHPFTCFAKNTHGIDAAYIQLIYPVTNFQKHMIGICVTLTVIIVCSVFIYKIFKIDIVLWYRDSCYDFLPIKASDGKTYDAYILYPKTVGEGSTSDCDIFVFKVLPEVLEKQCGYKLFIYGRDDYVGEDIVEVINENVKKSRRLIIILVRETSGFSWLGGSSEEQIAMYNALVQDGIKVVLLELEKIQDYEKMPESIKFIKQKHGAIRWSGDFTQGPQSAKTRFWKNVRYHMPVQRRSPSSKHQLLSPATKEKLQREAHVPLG

[3] = biological target: human serum albumin (human) (UniProt P02768)

Chain of uncoupled saporin (enzyme) (P20656 25-277): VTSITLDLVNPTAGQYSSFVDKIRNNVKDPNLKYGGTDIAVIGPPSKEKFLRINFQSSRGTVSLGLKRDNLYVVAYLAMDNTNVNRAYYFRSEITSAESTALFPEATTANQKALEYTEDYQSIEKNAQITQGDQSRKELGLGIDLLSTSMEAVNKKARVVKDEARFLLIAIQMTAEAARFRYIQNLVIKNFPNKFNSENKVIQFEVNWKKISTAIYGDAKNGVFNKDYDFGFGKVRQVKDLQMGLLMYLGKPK
Chain of recombinant human IL-1ra (R&D systems) (P18510 other isoform, or with tags, fused parts or gaps): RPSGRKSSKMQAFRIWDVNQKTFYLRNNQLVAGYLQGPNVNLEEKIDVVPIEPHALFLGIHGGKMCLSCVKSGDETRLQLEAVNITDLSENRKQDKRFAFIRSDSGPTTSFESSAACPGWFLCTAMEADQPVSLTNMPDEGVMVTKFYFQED

- OD600 [1]: 0.049 OD600
Substance: control FITC coupled antibody

- ND50 (neutralizing dose 50), IL-1-induced IL-8 secretion by MRC-5 cells [2]: 0.5 nM
Substance: recombinant human IL-1ra (R&D systems) (from UniProt P18510 26-176) (ligand)

Substance: uncoupled saporin (enzyme)
- OD600 [3]: 0.079 OD600
